Patent publication US20190300618A1 (Merck Sharp & Dohme, published 2019)

T1: W13A
T1 construct: also called hCD27 W13A
T1 receptor: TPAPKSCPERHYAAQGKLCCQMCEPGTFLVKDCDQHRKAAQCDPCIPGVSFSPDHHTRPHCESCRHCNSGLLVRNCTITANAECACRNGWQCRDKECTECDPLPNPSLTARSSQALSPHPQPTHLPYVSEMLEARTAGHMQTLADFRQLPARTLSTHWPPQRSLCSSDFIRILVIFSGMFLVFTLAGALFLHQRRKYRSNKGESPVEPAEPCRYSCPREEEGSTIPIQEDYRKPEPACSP

T2: K17A
T2 construct: also called hCD27 K17A
T2 receptor: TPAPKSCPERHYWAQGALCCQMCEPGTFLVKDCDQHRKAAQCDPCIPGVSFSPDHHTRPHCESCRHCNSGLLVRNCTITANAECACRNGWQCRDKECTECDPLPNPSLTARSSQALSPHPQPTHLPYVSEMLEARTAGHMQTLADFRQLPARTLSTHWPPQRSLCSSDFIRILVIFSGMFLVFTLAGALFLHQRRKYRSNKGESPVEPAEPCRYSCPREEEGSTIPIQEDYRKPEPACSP

T3: F28A
T3 construct: also called hCD27 F28A
T3 receptor: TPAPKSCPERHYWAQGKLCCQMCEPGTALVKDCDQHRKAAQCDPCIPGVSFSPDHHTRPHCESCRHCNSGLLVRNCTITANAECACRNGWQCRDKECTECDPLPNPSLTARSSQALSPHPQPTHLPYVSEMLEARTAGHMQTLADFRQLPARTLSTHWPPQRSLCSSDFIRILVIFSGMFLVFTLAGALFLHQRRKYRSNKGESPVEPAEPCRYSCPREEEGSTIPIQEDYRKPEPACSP

T4: K31A
T4 construct: also called hCD27 K31A
T4 receptor: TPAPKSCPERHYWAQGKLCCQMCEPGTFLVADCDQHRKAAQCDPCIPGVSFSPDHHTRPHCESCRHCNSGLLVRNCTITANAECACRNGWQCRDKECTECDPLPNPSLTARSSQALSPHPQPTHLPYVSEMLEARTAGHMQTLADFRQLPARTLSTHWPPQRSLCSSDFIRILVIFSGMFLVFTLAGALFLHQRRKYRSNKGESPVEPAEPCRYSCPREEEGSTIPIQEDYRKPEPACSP

T5: Q41A
T5 construct: also called hCD27 Q41A
T5 receptor: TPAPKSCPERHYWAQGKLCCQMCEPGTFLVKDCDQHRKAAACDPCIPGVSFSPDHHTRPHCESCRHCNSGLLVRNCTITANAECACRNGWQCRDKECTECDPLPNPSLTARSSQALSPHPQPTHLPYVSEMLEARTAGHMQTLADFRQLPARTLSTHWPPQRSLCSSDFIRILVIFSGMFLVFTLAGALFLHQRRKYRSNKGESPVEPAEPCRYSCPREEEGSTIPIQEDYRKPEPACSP

T6: H60A
T6 construct: also called hCD27 H60A
T6 receptor: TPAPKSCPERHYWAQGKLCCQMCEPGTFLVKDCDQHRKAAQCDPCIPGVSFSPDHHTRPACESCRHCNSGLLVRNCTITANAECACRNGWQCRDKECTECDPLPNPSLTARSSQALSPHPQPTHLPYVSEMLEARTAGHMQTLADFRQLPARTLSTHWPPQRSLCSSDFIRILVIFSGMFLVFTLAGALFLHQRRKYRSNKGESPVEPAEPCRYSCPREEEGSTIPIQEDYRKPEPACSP

T7: R87A
T7 construct: also called hCD27 R87A
T7 receptor: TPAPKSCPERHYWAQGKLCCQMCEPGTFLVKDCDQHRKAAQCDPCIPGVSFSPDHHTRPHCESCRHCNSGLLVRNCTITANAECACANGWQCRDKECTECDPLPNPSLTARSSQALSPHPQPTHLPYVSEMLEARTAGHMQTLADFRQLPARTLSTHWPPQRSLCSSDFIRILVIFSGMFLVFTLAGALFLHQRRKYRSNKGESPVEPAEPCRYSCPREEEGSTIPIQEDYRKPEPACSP

T8: G89A
T8 construct: also called hCD27 G89A
T8 receptor: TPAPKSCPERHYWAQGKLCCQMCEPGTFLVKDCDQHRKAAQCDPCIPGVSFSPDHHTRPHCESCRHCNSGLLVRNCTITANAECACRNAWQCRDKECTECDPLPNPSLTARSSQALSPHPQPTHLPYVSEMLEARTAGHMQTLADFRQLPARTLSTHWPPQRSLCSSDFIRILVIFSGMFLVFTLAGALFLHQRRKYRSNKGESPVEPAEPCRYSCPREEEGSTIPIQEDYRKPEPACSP

T9: E9A
T9 construct: also called hCD27 E9A
T9 receptor: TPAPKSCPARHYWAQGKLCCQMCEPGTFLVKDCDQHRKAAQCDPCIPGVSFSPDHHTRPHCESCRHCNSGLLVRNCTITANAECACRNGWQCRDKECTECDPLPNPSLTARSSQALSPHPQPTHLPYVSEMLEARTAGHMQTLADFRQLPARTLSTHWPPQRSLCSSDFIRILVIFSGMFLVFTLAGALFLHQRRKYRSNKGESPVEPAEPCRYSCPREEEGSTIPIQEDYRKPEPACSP


Tests used:
[1] = molecular target: human CD27 (A59T), expressed on cells (human) (UniProt P26842); assay: cell-based or functional assay
[2] = molecular target: human CD27 (wild type), expressed on cells (human) (UniProt P26842); assay: cell-based or functional assay
[3] = molecular target: human CD27 (wild type), expressed on cells (human) (UniProt P26842); assay: cell ELISA on transfected CHO cells
[4] = molecular target: human CD27 (wild type), expressed on cells (human) (UniProt P26842); assay: flow cytometry MFI on CD8+ T cells from peripheral blood
[5] = molecular target: human CD27 (wild type), expressed on cells (human) (UniProt P26842); assay: competition cell ELISA on CHO-hCD27; competitor detected: mouse hCD27.15 at 1 µg/ml
W13A = molecular target: T1, W13A; assay: flow cytometry, CHO-K1; single column;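 further: CHO-K1 cells transiently transfected with hCD27 alanine mutant constructs, anti-hCD27 antibody binding measured by flow cytometry, 30 min at 4 °C, wild-type hCD27 binding taken as 100%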
Protocol: (§1) The ability of several anti-hCD27 antibodies to bind to a series of hCD27 alanine mutants was determined using CHO-K1 cells, transiently transfected pCI-neo empty vector, pCI-neo.hCD27 and several pCI-neo.CD27Ala mutant constructs.
(§2) Detached cells were transferred to 96 wells round-bottomed well plates at approximately 1.2×10⁵ cells/well. After spinning down the cells, discarding the supernatants and re-suspending the cells in the residual volume, the primary antibodies were added and incubated for 30 minutes at 4° C. Cells were washed three times with DPBS/BSA 1%, followed by centrifugation, discarding of the supernatants and re-suspension in the residual volume. […] After washing once, antibody binding was detected using the HTS plate reader (FACS Canto II) and FlowJo software for data analysis. Debris, dead cells and doublets were excluded from the analysis. Binding was expressed as the geometric mean of the FITC signal, relative to antibody binding to hCD27, which was set at 100%.

K17A = molecular target: T2, K17A; assay: flow cytometry, CHO-K1; single column;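 further: CHO-K1 cells transiently transfected with hCD27 alanine mutant constructs, anti-hCD27 antibody binding measured by flow cytometry, 30 min at 4 °C, wild-type hCD27 binding taken as 100%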
Protocol: as §1, §2

F28A = molecular target: T3, F28A; assay: flow cytometry, CHO-K1; single column;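 further: CHO-K1 cells transiently transfected with hCD27 alanine mutant constructs, anti-hCD27 antibody binding measured by flow cytometry, 30 min at 4 °C, wild-type hCD27 binding taken as 100%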
Protocol: as §1, §2

K31A = molecular target: T4, K31A; assay: flow cytometry, CHO-K1; single column;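 further: CHO-K1 cells transiently transfected with hCD27 alanine mutant constructs, anti-hCD27 antibody binding measured by flow cytometry, 30 min at 4 °C, wild-type hCD27 binding taken as 100%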
Protocol: as §1, §2

Q41A = molecular target: T5, Q41A; assay: flow cytometry, CHO-K1; single column
Protocol: as §1, §2

H60A = molecular target: T6, H60A; assay: flow cytometry, CHO-K1; single column
Protocol: as §1, §2

R87A = molecular target: T7, R87A; assay: flow cytometry, CHO-K1; single column
Protocol: as §1, §2

G89A = molecular target: T8, G89A; assay: flow cytometry, CHO-K1; single column
Protocol: as §1, §2

E9A = molecular target: T9, E9A; assay: flow cytometry, CHO-K1; single column
Protocol: as §1, §2

Emax (fold change), NF-κB-luciferase reporter assay [1] [fold change] | Fold Change values at 2.5 µg/ml, NF-κB-luciferase reporter assay [1] [fold change] | Emax (fold change), NF-κB-luciferase reporter assay [2] [fold change] | Fold Change values at 2.5 µg/ml, NF-κB-luciferase reporter assay [2] [fold change] | NF-κB luciferase activity, 10 µg/ml fold change (FIG. 7A) [2] [fold change] | NF-κB luciferase activity, 10 µg/ml fold change (FIG. 7B) [2] [fold change] | fold higher EC50 compared to 131AVH6VL6-hIgG1 [3] [fold] | EC50 [4] [nM] | IC50 (read off the curve) [5] [nM] | % of WT hCD27 binding (geo mean FITC) (W13A) [%] | % of WT hCD27 binding (geo mean FITC) (K17A) [%] | % of WT hCD27 binding (geo mean FITC) (F28A) [%] | % of WT hCD27 binding (geo mean FITC) (K31A) [%] | % of WT hCD27 binding (geo mean FITC) (Q41A) [%] | % of WT hCD27 binding (geo mean FITC) (H60A) [%] | % of WT hCD27 binding (geo mean FITC) (R87A) [%] | % of WT hCD27 binding (geo mean FITC) (G89A) [%] | % of WT hCD27 binding (geo mean FITC) (E9A) [%] | Molecule
1.3 | 1.23 | 1.48 | 1.34 | 2.23 | 1.73 | 4 | 1.3 | 4 |  |  |  |  |  |  |  |  |  | 1F5 hIgG1 (antibody)
 |  |  |  |  |  |  |  |  | 71.4 | 120 | 59.4 | 30.3 | 33.9 | 82.6 | 114 | 97.4 | 58.5 | hCD27.15-6B (humanized hCD27.15, human IgG4, Clone 6B) (antibody, V domains shown, humanized version of hCD27.15 from WO2012/004367 with identical CDR regions; also called hCD27.15 (humanized 6B); hCD27.15 6B humanized antibody) VH: QVQLVQSGAEVKKPGASVKVSCKASGFIIKATYMHWVRQAPGQRLEWMGRIDPANGETKYDPKFQVRVTITADTSASTAYMELSSLRSEDTAVYYCARYAWYFDVWGQGTLVTVSS VL: DIQMTQSPSSLSASVGDRVTITCRASENIYSFLAWYQQKPGKAPKLLIYHAKTLAEGVTSRFSGSGSGTDFTLTISSLQPEDSATYYCQHYYGSPLTFGQGTRLEIKR
